Substitutions are numbered along the chain they refer to.
Columns and labels:
Pus7 D256A [1] = molecular target: T1, Pus7 D256A (Saccharomyces cerevisiae, UniProt Q08647 1-676, D256A); experiment: stopped-flow fluorescence
T1 sequence: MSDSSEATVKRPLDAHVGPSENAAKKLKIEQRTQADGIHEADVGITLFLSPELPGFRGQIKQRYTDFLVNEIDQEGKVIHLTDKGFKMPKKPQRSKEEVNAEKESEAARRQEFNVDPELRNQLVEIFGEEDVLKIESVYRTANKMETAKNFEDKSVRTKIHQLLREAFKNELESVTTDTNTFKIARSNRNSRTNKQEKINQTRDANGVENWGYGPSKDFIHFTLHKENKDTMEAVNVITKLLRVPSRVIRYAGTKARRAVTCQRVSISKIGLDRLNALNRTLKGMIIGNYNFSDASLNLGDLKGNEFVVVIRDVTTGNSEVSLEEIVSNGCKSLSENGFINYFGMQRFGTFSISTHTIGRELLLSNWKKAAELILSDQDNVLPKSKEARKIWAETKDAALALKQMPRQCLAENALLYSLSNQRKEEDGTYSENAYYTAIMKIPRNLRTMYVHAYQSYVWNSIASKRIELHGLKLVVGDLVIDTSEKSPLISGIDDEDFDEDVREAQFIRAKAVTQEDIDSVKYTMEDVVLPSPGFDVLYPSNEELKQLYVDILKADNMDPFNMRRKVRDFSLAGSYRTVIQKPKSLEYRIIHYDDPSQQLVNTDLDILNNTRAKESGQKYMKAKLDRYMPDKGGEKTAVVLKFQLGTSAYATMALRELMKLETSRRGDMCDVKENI

Pus1 = molecular target: T2, Pus1 (Saccharomyces cerevisiae, UniProt Q12211 1-544); experiment: EMSA
T2 sequence: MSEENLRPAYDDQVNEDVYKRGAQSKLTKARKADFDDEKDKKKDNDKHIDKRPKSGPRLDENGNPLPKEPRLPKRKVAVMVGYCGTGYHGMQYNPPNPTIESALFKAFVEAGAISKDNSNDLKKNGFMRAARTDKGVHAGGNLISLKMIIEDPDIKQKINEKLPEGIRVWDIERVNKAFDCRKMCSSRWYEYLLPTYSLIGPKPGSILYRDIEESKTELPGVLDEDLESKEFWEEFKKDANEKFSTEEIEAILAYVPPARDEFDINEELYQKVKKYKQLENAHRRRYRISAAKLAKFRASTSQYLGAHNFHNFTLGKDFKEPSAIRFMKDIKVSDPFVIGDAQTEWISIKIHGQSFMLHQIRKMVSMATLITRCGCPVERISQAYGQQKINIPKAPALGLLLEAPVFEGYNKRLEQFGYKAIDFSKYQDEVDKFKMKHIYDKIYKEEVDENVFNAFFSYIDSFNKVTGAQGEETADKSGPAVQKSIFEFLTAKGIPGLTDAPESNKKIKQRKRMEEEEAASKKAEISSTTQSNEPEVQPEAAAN

Pus7 D256A [2] = molecular target: T1, Pus7 D256A; experiment: EMSA
Pus7 D256A/F307A = molecular target: T3, Pus7 D256A/F307A (Saccharomyces cerevisiae, UniProt Q08647 1-676, D256A;F307A); experiment: EMSA
T3 sequence: T1 sequence with F307A

B1: CDC8 (cdc8-FL, 61 nt) (ssRNA)
RNA: GUCAAUCACGAUUGUAGACGUUACUAAUAAGGGCAUUCAGGAAGUUGAAGCGCUUAUUUGG
In the case of B1, the Kd (Pus7 D256A [1]) is reported as about 85 nM, the binding result (Pus1) is reported as “binds” and the Kd (Pus7 D256A [2]) is reported as 60 ± 15 nM. For the same binder, the Kd (Pus7 D256A/F307A) was 340 ± 170 nM.
